Experimental data reported in paper PMC4335406.

Experiments:
[1] = biological target: DsLOV, short LOV protein from Dinoroseobacter shibae DFL12T (Dinoroseobacter shibae DFL12T); assay: SEC; analytical size-exclusion chromatography; data not shown; conditions not given
[2] = biological target: DsLOV, short LOV protein from Dinoroseobacter shibae DFL12T (Dinoroseobacter shibae DFL12T); assay: small angle X-ray scattering (SAXS); 7.2 and 14.8 mg/ml DsLOV in 10 mM NaH2PO4, 300 mM NaCl, pH 8.0, 10°C; beamline BM29, ESRF

stoichiometry N [1]: 2
stoichiometry N [2]: 2
Substance: DsLOV, short LOV protein from Dinoroseobacter shibae DFL12T (natural protein)
